The values below come from patent US20200247855A1, “THERAPY AND DIAGNOSTICS” (OXFORD UNIVERSITY INNOVATION LIMITED, priority 2017, published 2020).

In assay [1] the target is T1, CCL8_HUMAN (Homo sapiens, UniProt P80075).
T1 sequence (P80075 24-99): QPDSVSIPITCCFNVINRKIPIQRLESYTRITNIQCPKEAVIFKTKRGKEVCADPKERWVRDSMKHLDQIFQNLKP
The note with it: read-out: Kd, CCL8_HUMAN, previously described evasins; data obtained from publications [20-22,32]; cited from earlier work.

Assay [2] has as its target T2, CCL22_HUMAN (Homo sapiens, UniProt O00626).
T2 sequence (O00626 25-93): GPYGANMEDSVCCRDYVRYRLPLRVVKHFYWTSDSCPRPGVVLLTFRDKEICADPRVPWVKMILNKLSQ
The note with it: read-out: Kd, CCL22_HUMAN, previously described evasins; data obtained from publications [20-22,32]; cited from earlier work.

Another assay concerns the target T3, CCL19_HUMAN (Homo sapiens, UniProt Q99731).
T3 sequence (Q99731 22-98): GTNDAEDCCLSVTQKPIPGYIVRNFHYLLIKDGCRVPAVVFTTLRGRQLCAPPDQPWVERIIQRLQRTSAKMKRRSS
The note with it: read-out: Kd, CCL19_HUMAN, previously described evasins; data obtained from publications [20-22,32]; cited from earlier work.

A further assay concerns the target T4, CCL3_HUMAN (Homo sapiens, UniProt P10147).
T4 sequence (P10147 24-92): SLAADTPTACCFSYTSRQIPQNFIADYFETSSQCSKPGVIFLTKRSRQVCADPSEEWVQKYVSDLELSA
The note with it: read-out: Kd, CCL3_HUMAN, previously described evasins; data obtained from publications [20-22,32]; cited from earlier work.

The target in assay [3] is T1, CCL8_HUMAN. The note with it: Eaton, J. R. O. et al., JBC [2018], cited from earlier work.
A further assay addresses T5, CCL23_HUMAN (Homo sapiens, UniProt P55773).
T5 sequence (P55773 22-120): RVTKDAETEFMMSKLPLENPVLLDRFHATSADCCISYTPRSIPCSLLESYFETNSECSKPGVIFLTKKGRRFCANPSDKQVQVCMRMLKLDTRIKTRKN
The assay can be described thus: Biolayer interferometry (BLI) binding. The gist of the method:
(§1)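 Analyte: chemokine, screened at 300 nM then as a dose series for binders. Ligand: purified His-tagged tick evasin on Ni-NTA sensors. Kd obtained by fitting association, equilibrium and dissociation traces.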
On the technique in general: In BLI a coated tip is dipped into the sample, and binding shifts an interference pattern.

In the next assay the target is CCL20_HUMAN (Homo sapiens, UniProt P78556). The assay can be described thus: Biolayer interferometry (BLI) binding. The gist of the method: as §1
Sequence of CCL20_HUMAN (P78556 27-96): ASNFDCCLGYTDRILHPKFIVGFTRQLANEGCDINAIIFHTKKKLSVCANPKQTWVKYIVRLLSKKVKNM
The target of a further assay is CCL13_HUMAN (Homo sapiens, UniProt Q99616). As to the kind of experiment: Biolayer interferometry (BLI) binding. The gist of the method: as §1
Sequence of CCL13_HUMAN (Q99616 17-98): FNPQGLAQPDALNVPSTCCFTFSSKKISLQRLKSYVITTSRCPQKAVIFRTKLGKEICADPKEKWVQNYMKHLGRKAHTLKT
For assay [4], the target named is T2, CCL22_HUMAN. As to the kind of experiment: Biolayer interferometry (BLI) binding. The gist of the method:
as §1

The next assay has as its target T6, CCL17_HUMAN (Homo sapiens, UniProt Q92583).
T6 sequence (Q92583 24-94): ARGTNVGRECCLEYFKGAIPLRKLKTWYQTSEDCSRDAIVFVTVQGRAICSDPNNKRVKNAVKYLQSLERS
As to the kind of experiment: Biolayer interferometry (BLI) binding. In a few lines:
as §1

The target in the next assay is T7, CCL4_HUMAN (Homo sapiens, UniProt P13236).
T7 sequence (P13236 24-92): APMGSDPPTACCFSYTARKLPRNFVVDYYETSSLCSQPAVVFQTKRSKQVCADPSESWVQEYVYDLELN
As to the kind of experiment: Biolayer interferometry (BLI) binding. The gist of the method: as §1

Read-outs that look alike come from different tables or passages of the source.

B1: EVASIN4: previously described tick CKBP evasin 4, from Rhipicephalus sanguineus (protein, listed as Rhipicephalus sanguineus)
chain: EVPQMTSSSAPDLEEEDDYTAYAPLTCYFTNSTLGLLAPPNCSVLCNSTTTWFNETSPNNASCLLTVDFLTQDAILQENQPYNCSVGHCDNGTCAGPPRHAQCW
The term Kd denotes the constant that tells how readily two partners part at equilibrium. B1: the Kd with CCL8_HUMAN [1] was 0.25 nM; with CCL22_HUMAN [2], 0.43 nM; with CCL19_HUMAN it was 0.14 nM; in the assay with CCL3_HUMAN it was 0.06 nM.

B2: P672_RHIPU: tick CKBP, Rhipicephalus pulchellus (protein, listed as Rhipicephalus pulchellus)
chain: VCEVSEQEGVGEDNATEDEDYEDFFKPVTCYFANSTVGPLRPPNCTVVCTNNTAWWNDTKSDGGHCYSEYRPEKRTHSREIYNCTIGVCGNGTCIANHTYADCW
For the molecule B2, the “Residency time (RT) of P672:CCL8 interaction” value with CCL8_HUMAN [3] is recorded as 27 min. The Kd with CCL8_HUMAN [3] (read-out: Kd of P672:CCL8 interaction) was 8.5 nM; in the assay with CCL23_HUMAN it was 10 nM.

B3: P1243_AMBAM: tick CKBP, Amblyomma americanum; AAM-02 stated identical (protein, listed as Amblyomma americanum)
chain: RNHTEDNSTEYYDYEEARCACPARHLNNTNGTVLKLLGCHYFCNGTLCTAPDGYPCYNLTAQQVRTLTTYPNTSCAVGVCMKGTCVKNGTMEQCFKTP
Take B3: the Kd is 8.34 nM in the assay with CCL20_HUMAN; 0.788 nM in the assay with CCL13_HUMAN; 22.3 nM with CCL22_HUMAN [4]; 0.734 nM with CCL17_HUMAN; 15.3 nM in the assay with CCL4_HUMAN.
